The data set in a line: soluble on expression in E. coli; label from the status in PepcDB or PDB records.
With “MSLIHIAIAEDDFRVAQIHERLIKQLDGFKIIGKAANAKETLALLKEHKADLLLLDIYMPDELGTALIPDIRSRFPEVDIMIITAATETRHLQEALRAGIAHYLIKPVTADKFRQVLLQYKEKRKLLMSQPEVSQSMIDHIFGNGVKTALPAEDLPTGINSITLRKIKEALQTASEGLTAEELGEKMGASRTTARRYAEYLVSKEEARAELEYGIIGRPERKYYLAADEGHHHHHH”, the “soluble on expression in E. coli” value is listed as “soluble”.

“MSLIIKNAKVVTHDMQLKEPWAIAGHVHDSIKNTFITLEDSEGNIGIGSCATQNDSEESVKECFDILESFSSSLVGKELGLNENTFGWIASELPLNTEANAAVDIAIHDLWAKREEKTLVDALGKKHQSFDTSITIGVASLEKTIEMAKKHIGNGFSILKIKIGDCVEEDIERMKALFELKPEKIKIRVDANRGYSKEELIKFYEKTLHLGLELIEQPMEVDQNNEMLYFPEEIRKICVADESLQNFDDAVRLLKEPKPFGVFNIKLMKCGGVFAAKKIASLAEENGIELMWGCFDESKISISAALHTALSCENTRYIDLDGFFDLGWDLIEGGYRCENGIMSAIERPGLGVFSEGHHHHHH”: the “soluble on expression in E. coli” value is given as “soluble”.

With “MSLIIRKLFEFENAHIVRFCSSKRCKSSIHGHSYKVEVLLESKYLDNAGMVYDFGLLKTYIRQIIDSFDHAITLFKYDDAKYLEEMKKYSSRWICLPVNVSAENFCRVFFILIDALLKQTKMVNGEQGVTLQSIIVHETRTGYAQGFREDAEGHHHHHH”, the “soluble on expression in E. coli” value is given as “not soluble”.

On to “MSLIKLLALDMDGTLLNEAKEIPQAHITAIHKAIEKGVKLVLCTGRPLFGVLPYYKKLELDLQNEYIIVNNGCSTHQTSDWGLVDWQELSPADIEYLYDLAEKSDVQLTLFDESHYFVLGGKPNQVIENDAKLVFSDLTEISLEEATSGKFRMFQGMFLGTKEQTDDFEQRFAEELCQRFSGVRSQPVIYEAMPLGTTKATALSRLAEILKIDSSEIMAMGDANNDIEMLQFAGLGIAMGNASDYVKSLADAVTSSNEEDGVARAIEKYILEGHHHHHH”, for which the “soluble on expression in E. coli” value is recorded as “soluble”.

Consider “MSLIKLRPHHIMCFQGYEGKGYSQDFIDNMDNIYRDLKEKDNLKIKIVFSTDDVCGSCPNKISDNNCGCNEKVMAIDNKVIRVLKLKQKIYTYNELVNKLRLNINEGVMKDICGQCVWYENSKCKTSILSLEGHHHHHH”, for which the “soluble on expression in E. coli” value is “soluble”.

Consider “MSLILESLVTTLDEQGRINLAPLGPIVLPPQSPGGLPQFLLRPYEGSTTCDNLLASGNAVIHVIDDALLIAKTAIGKVDASDLVVPIPGLEDTHVRLKRCHRWFAVRVTQRAGTPPRHELTARCLASGLVDPFFGFNRAKHAVIEAAVAATRLHLLPPEEIEEELERARIAIEKTGGEPEREALQLIRRHVRESSISEGHHHHHH”, for which the “soluble on expression in E. coli” value is “soluble”.

Turning to “MSLINARLIAFEDQWVPALNAPLKQAILADSQDAQLAAAMTYSVLAGGKRLRPLLTVATMQSLGVTFVPERHWRPVMALELLHTYSLIHDDLPAMDNDALRRGEPTNHVKFGAGMATLAGDGLLTLAFQWLTATDLPATMQAALVQALATAAGPSGMVAGQAKDIQSEHVNLPLSQLRVLHKEKTGALLHYAVQAGLILGQAPEAQWPAYLQFADAFGLAFQIYDDILDVVSSPAEMGKATQKDADEAKNTYPGKLGLIGANQALIDTIHSGQAALQGLPTSTQRDDLAAFFSYFDTERVNEGHHHHHH”, the “soluble on expression in E. coli” value is recorded as “soluble”.

As for “MSLINKEILPFTAQAFDPKKDQFKEVTQEDLKGSWSVVCFYPADFSFVCPTELEDLQNQYEELQKLGVNVFSVSTDTHFVHKAWHDHSDAISKITYTMIGDPSQTITRNFDVLDEATGLAQRGTFIIDPDGVVQASEINADGIGRDASTLAHKIKAAQYVRKNPGEVCPAKWEEGAKTLQPGLDLVGKI”, the “soluble on expression in E. coli” value is given as “not soluble”.

In the case of “MSLIPSSGPSAKKVVSLGQQSEAQIPEVELIDVNHAVAQSLYKAQVNQSFTQFGDGYASTGTLNIGDVLDIMIWEAPPAVLFGGGLSSMGSGSAQQTKLPEQLVTARGTVSVPFVGDISVVGKTPGQVQEIIKGRLKKMANQPQVMVRLVQNNAANVSVIRAGNSVRMPLTAAGERVLDAVAAVGGSTANVQDTNVQLTRGNVVRTVALEDLVANPRQNILLRRGDVVTMITNPYTFTSMGAVGRTQEIGFSARGLSLSEAIGRMGGLQDRRSDARGVFVFRYTPLVELPAERQDKWIRQGYGSEAEIPTVYRVNMADAHSLFSMQRFPVKNKDVLYVSNAPLAEVQKFLSFVFSPVTSGANSINNLTNEGHHHHHH”, the “soluble on expression in E. coli” value is “soluble”.

Consider “MSLIRFRFVDDHRTDYSVKRMCTVLGLNRSSYYKWKASSAQRHRRLVDDAILGAKVQAIFDDKKQLYGAKRIAAELTFNDAYSSTGPVNHKRIARIMRKLQLRGYTKKRKVTTTQRERHRFIFADLVKRNFTAPAANRILVGDITYLPIADGSNMYLASVIDCYSRMLVGFAIADHMRTDLVEEALEHARRTRGSLSGAIFHSDHGSVYTSSQFQAVCRRLNVTQSMGAVGSSADNSLAESFNAALKREVLKDQKVFSNQLVCRRDVFAWCARYNTTRRHSWCKYLTPIEYESHASEGHHHHHH”, for which the “soluble on expression in E. coli” value is “not soluble”.

As for “MSLIRKREFDMPIKIPDTLPAFETLVHEGVRVMTETAAIRQDIRPLQIGLLNLMPNKIKTEIQMARLVGASPLQVELSLIRIGGHRAKNTPEEHLLSFYQTWEEVRHRKFDGFIITGAPIELLDYEDVTYWNEMQQIFEWTQTNVHSTLNVCWGAMAAIYHFHGVPKYELKEKAFGVYRHRNLSPSSIYLNGFSDDFQVPVSRWTEVRRADIEKHPELEILMESDEMGVCLAHEKAGNRLYMFNHVEYDSTSLADEYFRDVNSGVPIKLPHDYFPHNDPELAPLNRWRSHAHLFFGNWINEIYQTTPYDPQAIGKLAAEGHHHHHH”, the “soluble on expression in E. coli” value was “soluble”.

Take “MSLIYHRIAVNVPLSDGLLTYSHSDPLPPGTRVLVPFRNKTVVGMVWETDIAPDMDMARILSVQTAFVEEKPLPESWRDLLAFTSRYYHYPTGQAVFAALPQGLKETRAVEMPQPPLFYALNEAGRAQTPPPARFNKKAALWDALLSGGMTMAALKQVNAQAAKLIEDWAEQGWIETTEAAKPVLRSYHGQASHSEFVLNADQQQASDEIQTAFGSFQPFLLYGITGSGKTEVYFDAMAKVLAQGRQVLFLLPEINLTPQLLKRVENRFADVPTAVLHSQMAAGKRTQDYLRAMLGQAKLVIGTRLAVFTPMDDVGLIVVDEEHDGSFKQDNELRYHARDLAVWRAKQGGCPIILGSATPSLESWHKAQSGAYRLLQLTERAHTAAQLPQVDILNVGRLKLDNGFSPQALQLLKQNFEAGGMSLVYLNRRGFAPALFCGDCGYTFGCPNCSAKMVLHQRARQLRCHHCDHREPIPYKCPDCGNQDLTAVGHGTQRVEETLRTFLPKAAVVRVDRDSTAHKNDWADLYRRIADNKIDILVGTQMLAKGHDFARLNLVIVLNADGSLYSADFRAPERLFAELMQVSGRAGRADKPGKVLIQTQLPEHPVFAAVKAQDYAVFAENELNERQMFAMPPFGFQTAVRADAPRVADAMEFLNAAKETLAPLLPESVSQFGAAPMLMVRLAERERAQIFLESPSRQDLHRAVSLWAQVLQQNRDGKIRWSVDVDPQEAEGHHHHHH”: the “soluble on expression in E. coli” value is reported as “not soluble”.

With “MSLIYQTPDALDLQLDRIPSLPPPRRVVLTTPTHFDVEYVINPHMSENVGAVNTDVAWQQWKALRAAYTALDHTPVLVNGQSGLPDMVFCANQTLPFYDPASDSKGVVLSRMHSEQRADEVPYYARFFEEEGYAVDTLPEDLDADFEGMGDALWHPGHHLLWGGYGYRTSPEAYEALGDLLDVPIVALRLVDPDYYHLDTCLCPLDARHALVAPEAFDDAGRALIDALFETVIEVPDHEARHQFACNAHCPDGAHVLIQEGCEGTNAQLRNHDFVPVELDTSEFMKSGGSVFCMKQMIWEGHHHHHH”, the “soluble on expression in E. coli” value was “soluble”.

For “MSLKAAVLKNYGTLPEYQEFPEPKPKNYDELLVTPIASSVKRLDVIRAAGKHYTKFSELPAVMGMDGVAKLDNNSRVYAMGITGMMAEKALIDQRTMTVLPDGLDAGLAAALPNALIGSDLALLERGKIKTGDVVFINGATGLTGSLAVQMAKLRGAKRVIVTGRDPIKLQHLKDLGAYLTITTNQPDNSFVKELINAYNQSPFNLILDYLWGHPAELIIEALRRIRFLNSLKYISIGSLAGEGISVPSQLLRSKDLELIGSGIGSLDPNAVQVYMQKHLTEIFDYANQGKLSMELKSFPLDKISSAWISAPAVITIEGHHHHHH”, the “soluble on expression in E. coli” value is “not soluble”.
